US20240190958A1, “NOVEL ANTIBODY DRUG CONJUGATES WITH NOVEL NAPI2B ANTIBODIES, THERAPEUTIC METHODS AND USES THEREOF” (Tubulis GmbH, priority 2022, published 2024)

Molecular target: recombinant human FcγRIIa/CD32 R131 (Lumit binding immunoassay) (human) (UniProt P12318)
Test: Lumit FcγRIIa (CD32) (R131) Binding Immunoassay (Promega), competition with Tracer-LgBiT for FcγR-SmBiT, luminescence, n=1; right panel

Chain of recombinant human FcγRIIa/CD32 R131 (Lumit binding immunoassay) (human) (P12318 34-217 H167R limits assumed): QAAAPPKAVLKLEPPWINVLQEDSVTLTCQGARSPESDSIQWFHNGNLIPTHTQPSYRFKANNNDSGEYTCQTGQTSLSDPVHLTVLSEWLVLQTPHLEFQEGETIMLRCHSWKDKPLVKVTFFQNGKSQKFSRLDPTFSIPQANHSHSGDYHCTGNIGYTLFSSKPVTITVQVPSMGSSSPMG

Substance: IgG1 positive control (standard of the Lumit FcγR Binding Immunoassays) (antibody)
- IC50 (read off the curve): 3 µg/mL
